Experimental data published in the supplement of paper PMC9732359.
± gives the uncertainty stated by the source.

Test: protein stability index of a GFP-peptide fusion (yeast GPS) (PSI 1-4); higher = more stable; sorted into four equal gates, so the index is relative within each strain
Outline: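 Sequencing reads from sorted gates were used to score each peptide. The library consisted of tiled 17-residue yeast protein peptides fused downstream of GFP on a Cherry-expressing plasmid, pooled and carried in yeast. Mid-log cultures in leucine-free medium were split into four equal gates by GFP/Cherry ratio, and each gate's plasmids were PCR-amplified and Illumina-sequenced. The protein stability index adds up, over all gates, the read frequency multiplied by the gate number.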

| Sequence | protein stability index (doa10∆) | protein stability index (pdr5∆) | protein stability index (san1∆) | protein stability index (ubr1∆) |
| --- | --- | --- | --- | --- |
| IFTDAGRVYRPLFIVED [RPB2] | 2.16 ± 0.066 | 2.51 ± 0.08 | 2.06 ± 0.074 | 1.89 ± 0.033 |
| PKNVKGEEDADEEETAE [RPN1] | 3.21 ± 0.17 | 3.16 ± 0.26 | 3.01 ± 0.14 | – |
| KYLEQVLDHQRAIPFRR [RPL17A] | 2.52 ± 0.059 | 2.35 ± 0.055 | 1.61 ± 0.083 | 1.78 ± 0.043 |
| INKMVGNRYLEKRLNLR [RPL21A] | 2.65 ± 0.085 | 2.8 ± 0.077 | 2.92 ± 0.092 | 3 ± 0.065 |
| TNFKEEITDASLNLQYV [YML103C/NUP188] | 3.08 ± 0.12 | 3.06 ± 0.084 | 3.18 ± 0.13 | 3.06 ± 0.087 |
| DKLKVYKQAMNETSEQL [SNF5] | 3.17 ± 0.11 | 3.39 ± 0.15 | 3.13 ± 0.12 | 3.11 ± 0.11 |
| IDKFIMVVQKYKLSTVV [GRR1] | 1.73 ± 0.068 | 1.9 ± 0.081 | 1.58 ± 0.11 | 1.86 ± 0.082 |
| TWENEFLDSQRVWAEYA [PRP8] | 2.14 ± 0.088 | 2.27 ± 0.072 | 2.13 ± 0.11 | 2.89 ± 0.11 |
| YDPKDALKNACNSIINK [RPB11] | 3.32 ± 0.24 | 3.23 ± 0.14 | 3.2 ± 0.084 | 3.37 ± 0.15 |
| KKVSRRNARATRAAKIA [RPL13A] | 2.25 ± 0.085 | 2.9 ± 0.1 | 2.39 ± 0.077 | 2.77 ± 0.045 |
| ELVETSEVRKAVSIETA [FAS2] | 2.43 ± 0.14 | – | – | 1.27 ± 0.27 |
| VIDTLAAGYGKILGKGR [RPL28] | 3.09 ± 0.12 | 2.63 ± 0.085 | 3.11 ± 0.17 | 3.52 ± 0.14 |
| PRKLVLSSGENRYAFSQ [SMC4] | 1.39 ± 0.08 | 1.56 ± 0.058 | 1.72 ± 0.086 | 1.59 ± 0.054 |
| SNISDEKSRISERDSKD [YMR129W/POM152] | 3.06 ± 0.1 | 3.12 ± 0.076 | 2.87 ± 0.075 | 3.13 ± 0.063 |
| HLEALQPLFSTVPEYLK [PGD1] | 1.51 ± 0.039 | 1.69 ± 0.045 | 1.66 ± 0.093 | 2.12 ± 0.066 |
| WDLLQSGSQNISEFDSF [RPN12] | 3.38 ± 0.16 | 3.14 ± 0.09 | 3.05 ± 0.12 | 3.22 ± 0.067 |
| EDYAIVTKGGTVENPLR [PRP28] | 3.47 ± 0.16 | 2.98 ± 0.099 | 3.39 ± 0.055 | 3.44 ± 0.078 |
| RLTAKRLIEHDPVEGNL [SRP14] | 2 ± 0.066 | 2.29 ± 0.052 | 1.93 ± 0.1 | 2.16 ± 0.045 |
| DNVVRFLNEARDKAGRL [RPO21] | 2.48 ± 0.063 | 1.61 ± 0.056 | 2.56 ± 0.14 | 1.76 ± 0.053 |
| IALSRRFLLNGRVKALE [YDL116W/NUP84] | 1.25 ± 0.062 | 1.3 ± 0.058 | 1.19 ± 0.13 | 1.24 ± 0.035 |
| MNGRSLTYAQQQLNKQR [SNF6] | 3.28 ± 0.26 | 3.36 ± 0.14 | 3.02 ± 0.15 | 3.23 ± 0.15 |
| NNIKNGTNNISQHGQGN [YDL088C/ASM4] | 2.93 ± 0.046 | 2.87 ± 0.033 | 3.05 ± 0.034 | 3.06 ± 0.021 |
| SMINSVSPTNVMGTPLT [PGD1] | 2.8 ± 0.053 | 2.94 ± 0.059 | 2.73 ± 0.042 | 2.84 ± 0.047 |
| SMILEAISTDKINPFGF [RRI2] | 2.85 ± 0.076 | 3.01 ± 0.12 | 2.59 ± 0.12 | 2.92 ± 0.083 |
| YPREEEEDYNEFNSIDR [PRP8] | 3.32 ± 0.09 | 3.24 ± 0.1 | 3.1 ± 0.068 | 3.27 ± 0.08 |
| IHLQRFDEGTTLLSPKD [RPO21] | 2.94 ± 0.14 | 2.57 ± 0.14 | 2.91 ± 0.16 | 2.98 ± 0.2 |
